Assay results taken from US11306156.

Key:
[1] = biological target: tissue factor (TF) antigen (UniProt P13726); assay: SPR; against wild-type D3H44 Fab
[2] = biological target: tissue factor (TF) antigen (UniProt P13726); assay: SPR (ProteOn), Fab captured on anti-penta His, TF as analyte, 1:1 fit
[3] = biological target: tissue factor (TF) antigen (UniProt P13726); assay: SPR, Fab captured on anti-penta His, TF injected, 1:1 fit
[4] = biological target: tissue factor (TF) antigen (UniProt P13726); assay: SPR; reference wild-type D3H44 Fab
[5] = biological target: tissue factor (TF) antigen (UniProt P13726); assay: SPR, Fab captured on anti-penta-His, TF as analyte, 1:1 fit
[6] = biological target: tissue factor (TF) antigen (UniProt P13726); assay: SPR, Fab captured by anti-His, TF as analyte
[7] = biological target: tissue factor (TF) antigen (UniProt P13726); assay: SPR (ProteOn XPR36): His-tagged Fab captured on anti-penta-His surface, TF as analyte, 1:1 fit

Chain of tissue factor (TF) antigen (P13726 33-251 limits assumed): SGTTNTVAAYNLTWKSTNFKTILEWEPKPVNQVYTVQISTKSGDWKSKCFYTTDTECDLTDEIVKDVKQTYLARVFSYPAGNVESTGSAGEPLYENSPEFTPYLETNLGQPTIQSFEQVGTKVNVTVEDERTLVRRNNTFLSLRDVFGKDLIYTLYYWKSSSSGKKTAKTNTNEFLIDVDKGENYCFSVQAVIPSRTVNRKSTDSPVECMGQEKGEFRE

Change in KD with respect to wild type (-(log(KD design) - log(KD wt))) [1]	Kd [2] [nM]	Kd [6] [nM]	Substance	other results
0.08	0.13		D3H44 Fab heterodimer, H1 L124E_H172T / L1 V133G_N137K_S174R_S176R (H1L1 of LCCA set 9120)	
			D3H44 Fab heterodimer, H L124R_D146N_Q179K / L Q124E_V133G_S176D_T178E_T180E	Kd [3]: 0.2 nM; Change in KD with respect to wild type (-(log(KD design) - log(KD wt))) [4]: -0.1; Change in KD with respect to wild type (-(log(KD design) - log(KD wt))) [5]: -0.1; Kd [5]: 0.2 nM
		0.22	D3H44 Fab heterodimer, heavy L124E_L143D_K145M / light Q124K_V133G_S176R_T178K	Change in KD of h1|1 Fab heterodimer with respect to wild type (-(log(KD design) - log(KD wt))) [4]: -0.15
-0.1	0.2		D3H44 Fab heterodimer, H1 L124R_D146N_Q179K / L1 Q124E_V133G_S176D_T178E_T180E (H1L1 of LCCA set 9351)	
0.39	0.06		D3H44 Fab heterodimer, H1 L143E_K145T_Q179D / L1 Q124R_Q160K_T178R (H1L1 of LCCA set 9620)	
-0.02	0.17		D3H44 Fab heterodimer, H1 A139W_S188L / L1 F116A_L135V (H1L1 of LCCA sets 9063 and 9062)	
			D3H44 H1L1 Fab heterodimer of LCCA sets 9571 and 9572 (H1 L124W_L143F_K145T_Q179E; L1 S131K_V133A_S176T_T178L)	Change in median values of KD of h1|1 Fab heterodimer compared to wild type (-(log(KD design)-log(KD wt))) [7]: -0.21 log units; Kd [7]: 0.26 nM
		0.23	D3H44 Fab heterodimer, heavy L124R_Q179K / light V133G_S176D_T178E_T180E	Change in KD of h2|2 Fab heterodimer with respect to wild type (-(log(KD design) - log(KD wt))) [4]: -0.16
0.36	0.07		D3H44 Fab heterodimer, H1 S186R / L1 Q124E_T180E (H1L1 of LCCA set 9900)	
			D3H44 H1L1 Fab heterodimer of LCCA set 9082 (H1 K145T_Q179E; L1 S131K)	Change in median values of KD of h1|1 Fab heterodimer compared to wild type (-(log(KD design)-log(KD wt))) [7]: -0.01 log units; Kd [7]: 0.16 nM
0.16	0.11		D3H44 Fab heterodimer, H1 Q179K / L1 Q124E_T180E (H1L1 of LCCA sets 9796 and 9789)	
-0.19	0.24		D3H44 Fab heterodimer, H1 L124E_L143E_K145M / L1 Q124K_V133G_S176R_T178K (H1L1 of LCCA sets 9260 and 9263)	
		0.31	D3H44 Fab heterodimer, heavy L124E_L143E_K145M / light Q124K_V133G_S176R_T178R	Change in KD of h1|1 Fab heterodimer with respect to wild type (-(log(KD design) - log(KD wt))) [4]: -0.29
0.05	0.14		D3H44 Fab heterodimer, H1 Q179K / L1 Q124E_T178E (H1L1 of LCCA set 9783)	
			D3H44 Fab heterodimer, H L124R_S186K / L V133G_S176D_T178D_T180E	Kd [3]: 0.18 nM; Change in KD with respect to wild type (-(log(KD design) - log(KD wt))) [4]: -0.07; Change in KD with respect to wild type (-(log(KD design) - log(KD wt))) [5]: -0.07; Kd [5]: 0.18 nM
-0.08	0.19		D3H44 Fab heterodimer, H1 L124E_L143D_K145T / L1 Q124K_V133G_S176R_T178K (H1L1 of LCCA sets 9216 and 9220)	
		0.27	D3H44 Fab heterodimer, heavy L124E_L143D_K145M / light Q124K_V133G_Q160K_S176R	Change in KD of h1|1 Fab heterodimer with respect to wild type (-(log(KD design) - log(KD wt))) [4]: -0.24
-0.07	0.18		D3H44 Fab heterodimer, H1 L124R_S186K / L1 V133G_S176D_T178D_T180E (H1L1 of LCCA set 9473)	
			D3H44 Fab heterodimer, H L124R_D146N_Q179K / L V133G_S176D_T178E_T180E	Kd [3]: 0.16 nM; Change in KD with respect to wild type (-(log(KD design) - log(KD wt))) [4]: -0.01
		0.22	D3H44 Fab heterodimer, heavy L124R_S186R / light V133G_S176D_T178E_T180E	Change in KD of h2|2 Fab heterodimer with respect to wild type (-(log(KD design) - log(KD wt))) [4]: -0.15
-0.01	0.16		D3H44 Fab heterodimer, H1 K145T_Q179E / L1 S131K (H1L1 of LCCA set 9082)	
		0.26	D3H44 Fab heterodimer, heavy L124R_S186K / light Q124E_V133G_S176D_T178D_T180E	Change in KD of h2|2 Fab heterodimer with respect to wild type (-(log(KD design) - log(KD wt))) [4]: -0.23
		0.18	D3H44 Fab heterodimer, heavy L124R_S186K / light V133G_S176D_T178D_T180E	Change in KD of h2|2 Fab heterodimer with respect to wild type (-(log(KD design) - log(KD wt))) [4]: -0.07
